Experiments:
PTP-SL 147-549 (C480S) = experiment: ITC; ERK2 (75-100 µM) injected into PTP-SL (8-10 µM) in the cell, 30 °C; single-site binding model
[1] = biological target: PTP-SL full cytoplasmic region (aa147-549); experiment: SEC; Superdex 200 HR 10/30 analytical column; 10 mM Hepes, 150 mM NaCl, 0.1 mM EDTA, 5 mM DTT, pH 7.5, no SDS; 100 µl sample, 0.5 ml/min; apparent MW against Bio-Rad gel filtration standard

| Ka (PTP-SL 147-549 (C480S)) | Kd (PTP-SL 147-549 (C480S)) | dH (PTP-SL 147-549 (C480S)) | stoichiometry N (PTP-SL 147-549 (C480S)) | stoichiometry N [1] | Substance |
| --- | --- | --- | --- | --- | --- |
| 6.6e+06 M⁻¹ | 150 nM | -21 kcal/mol | 1.06 | – | ERK2 (from UniProt P63086 1-358) (enzyme) |
| – | – | – | – | 2 | PTP-SL full cytoplasmic region (aa147-549) (domain or fragment) |

Source: paper PMC2675061
